# In patent US11795454B2, “Targeted delivery system” (Cedars-Sinai Medical Center, priority 2009, dated 2023):
# B1: HerDox: self-assembled nanoparticle of oligonucleotide duplex, doxorubicin and HerPBK10 (conjugate)
# chain: LPPRLKEMKSQESAAGSKLVLRCETSSEYSSLRFKWFKNGNELNRKNKPQNIKIQKKPGKSELRINKASLADSGEYMCKVISKLGNDSASANITIVESNEIITGMPASTEGAYVSSESPIRISVSTEGANTSSSTSTSTTGTSHLVKCAEKEKTFCVNGGECFMVKDLSNPSRYLCKCQPGFTGARCTENVPMKVQNQEKAEELYMRRAAMYEEGPPPSYESVVSAAPVAAALGSPFDAPLDPPFVPPRYLRPTGGRNSIRYSELAPLFDTTRVYLVDNKSTDVASLNYQNDHSNFLTTVIQNNDYSPGEASTQTINLDDRSHWGGDLKTILHTNMPNVNEFMFTNKFKARVMVSRLPTKDNQVELKYEWVEFTLPEGNYSETMTIDLMNNAIVEHYLKVGRQNGVLESDIGVKFDTRNFRLGFDPVTGLVMPGVYTNEAFHPDIILLPGCGVDFTHSRLSNLLGIRKRQPFQEGFRITYDDLEGGNIPALLDVDAYQASLKDDTEQGGGGAGGSNSSGSGAEENSNAAAAAMQPVEDMNDHAIRGDTFATRAEEKRAEAEAAAEAAAPAAQPEVEKPQKKPVIKPLTEDSKKRSYNLISNDSTFTQYRSWYLAYNYGDPQTGIRSWTLLCTPDVTCGSEQVYWSLPDMMQDPVTFRSTRQISNFPVVGAELLPVHSKSFYNDQAVYSQLIRQFTSLTHVFNRFPENQILARPPAPTITTVSENVPALTDHGTLPLRNSIGGVQRVTITDARRRTCPYVYKALGIVSPRVLSSRTFKKKKKKKKKK
# Tests used:
# MDA-MB-231 = assay: HerDox cytotoxicity dose curves (metabolic assay, crystal violet); format: cell-based, human; conditions: MDA-MB-231, low HER2; day 3; read-out: CD50 (the source's name)
# Method: (§1) FIG. 21 depicts, in accordance with an embodiment herein, toxicity to cells displaying differential HER2. Cytotoxicities from a range of HerDox doses were assessed on each cell line by metabolic assay and confirmed by crystal violet stain. CD50 values (shown in log scale) were determined by non-linear regression analyses of HerDox dose curves using a scientific graphing program (GraphPad Prism) and confirmed with an on-line calculator (Chang bioscience). The relative HER2 level of each cell line is shown next to each CD50 value.
# (§2) All treatments, N=3. FIG. 27A. Comparing cytotoxicity to HER2+ (MDAMB-435) and HER2− (MDA-MB-231) cells in separate cultures. Left, Relative survival (as % of untreated cells) on day 3 of treatment. Right, Micrograph of live cells after treatment. Control, mock (HBS) treatment. FIG. 27B, Receptor specificity of cytotoxicity. […] FIG. 27C, Toxicity to cells displaying differential HER2. Cytotoxicities from HerDox titrations were assessed on each cell line by metabolic assay and confirmed by crystal violet stain on day 3 of treatment. CD50 values (shown in log scale) were determined by non-linear regression analyses of HerDox killing curves using GraphPad Prism. The relative HER2 level of each cell line is shown next to each CD50 value. […] Survival was determined by calculating the relative doubling time (DT) of experimental (exp) cells normalized by mock-treated (con) cells based on crystal violet stains (total cells) and GFP fluorescence (MDAMB-231 cells), and applying DTMDA-MB-435=DTTotal-DTMDA-MB-231 as previously described. […] U251 cells were treated once with the indicated HerDox (and competitive inhibitor where indicated) or Dox doses and measured for cell survival at the indicated time points after treatment. * P<0.05 compared to Mock. […]
# (§3) To assess the contribution of HER2 to therapeutic efficacy in vitro, we determined HerDox CD50 on selected human tumor lines displaying HER2 at relatively high (SKBR3), moderate (MDA-MB-435, MDAMB-453, HeLa), and low to undetectable (MDA-MB-231) levels, according to our receptor subunit profiling of a cell line panel.
# SKBR3 = assay: as above; format: cell-based, human; conditions: SKBR3, high HER2; day 3; read-out: CD50 (the source's name)
# Method: as §1, §2, §3
molecule,measurement,setting,value
B1,IC50,MDA-MB-231,> 8000 nM
same,IC50,SKBR3,56 ± 17 nM
